Experimental data published in PMC6753076.

Target: PELI1 (UniProt Q96FA3)
Test: anti-Flag co-immunoprecipitation, immunoblot
Conditions: reference: wild type; sites T382

binding against the reference: lost
Substance: HPD (from UniProt P32754) T382A
